Measurements taken from patent US20150246971A1 (RESEARCH DEVELOPMENT FOUNDATION, published 2015).

Key:
[1] = biological target: T1, human JAM-C (full-length, on cells) (human, UniProt Q9BX67 32-310); assay: adhesion of CFSE-labelled JAM-C-transfected Raji cells to coated Fc protein
T1 construct: whole, on cells; also called HuJAM-C; junctional adhesion molecule C
T1 sequence (looked up): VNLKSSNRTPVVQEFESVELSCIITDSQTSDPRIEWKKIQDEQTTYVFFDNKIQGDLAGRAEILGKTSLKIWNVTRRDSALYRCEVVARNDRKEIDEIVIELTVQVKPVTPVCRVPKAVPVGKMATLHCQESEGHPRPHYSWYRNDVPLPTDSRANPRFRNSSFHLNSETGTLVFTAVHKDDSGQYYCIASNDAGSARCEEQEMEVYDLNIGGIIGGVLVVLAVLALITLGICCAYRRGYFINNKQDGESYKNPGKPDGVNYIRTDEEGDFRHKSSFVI
Protocol: (§1) Although homotypic JAM-C/JAM-C and heterotypic JAM-C/JAM-B interactions have been reported, the endothelial ligand for JAM-C on B cells had not been described. To investigate this interaction, adhesion assays were performed. Culture plates were coated with recombinant human and murine JAM-B Fc, human JAM-C Fc, human VCAM-1 Fc as a positive control, and JAM-A Fc as a negative control. The JAM-Cneg B cell line Raji was transfected with the full-length human JAM-C cDNA and mock-transfected cells were used as a control (FIG. 5A). Whereas mock-transfected Raji cells adhered only to VCAM-1, JAM-C transfected Raji cells adhered to JAM-B and VCAM-1, but adhered neither to JAM-C nor to JAM-A (FIG. 5B-C). […]
(§2) For cell adhesion assays, NUNC 269787 adhesion plates were successively coated with anti-huFc antibody (Jackson Immuno Research) at 2.5 μg/mL, Fc-labeled proteins at 2.5 μg/mL, and blocked with 1% BSA (purified fraction V, Sigma). […] One hundred microliters of lysed cells were transferred into a 96-well plate (micro-clear plates black, Greiner), and fluorescence (πex 485 nm; πem 538 nm) was measured with a Flex Station Microplate reader (Molecular Devices). Data were expressed either in arbitrary units or as the ratio of the fluorescence measured on JAM-B Fc coated wells to the fluorescence measured on wells coated with Fc control protein.

[2] = biological target: T2, soluble human JAM-C-FLAG protein (human, UniProt Q9BX67 32-237); assay: SPR (Biacore 2000), JAM-C FLAG on a CM5 chip
T2 construct: Amine-coupled to a Biacore CM5 chip; also called immobilized JAM-C; human soluble JAM-C FLAG protein
T2 sequence: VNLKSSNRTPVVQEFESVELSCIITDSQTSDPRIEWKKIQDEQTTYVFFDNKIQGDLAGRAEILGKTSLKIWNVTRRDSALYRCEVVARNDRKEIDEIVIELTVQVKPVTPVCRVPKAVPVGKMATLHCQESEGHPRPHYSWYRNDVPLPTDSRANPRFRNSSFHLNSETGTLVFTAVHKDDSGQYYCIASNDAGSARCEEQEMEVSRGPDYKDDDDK
Protocol: (§3) To confirm the specificity of the JAM-C/JAM-B interaction at the molecular level, soluble human JAM-C-FLAG protein was covalently immobilized to a Biacore CM5 sensor chip Immobilization was assessed by testing the binding of anti-JAM-C monoclonal and polyclonal antibodies. […] Homotypic JAM-C/JAM-C interaction was never observed under these conditions, even when injecting higher concentrations of JAM-C Fc. […] To validate these findings for the model of human cells injected into mice, the inventors subsequently confirmed that human JAM-C binds to murine JAM-B to the same extent as to human JAM-B (FIG. 6B).
(§4) Interaction studies were performed on a Biacore 2000 (GE Healthcare). Recombinant proteins were immobilized at a concentration of 5 μg/mL on a CM5 sensor chip using the amine coupling kit (NHS-EDC) provided by the Biacore supplier. Background signal from a reference channel without soluble JAM-C was automatically subtracted. Proteins (30 μL) were injected (Kinject) in running buffer (400 μM Tris-HCl pH 7.4, containing 145 mM NaCl) at a flow rate of 20 μL/min.

[3] = biological target: T2, soluble human JAM-C-FLAG protein; assay: SPR (Biacore 2000), JAM-C FLAG on a CM5 chip, response at the end of injection
Protocol: as §3, §4

[4] = biological target: T1, human JAM-C (full-length, on cells); assay: adhesion of CFSE-labelled JAM-C-transfected Raji cells to coated Fc protein (human and murine JAM-B Fc coated)
Protocol: as §1, §2

B1: recombinant human JAM-B Fc (Fc fusion)
chain: FSAPKDQQVVTAVEYQEAILACKTPKKTVSSRLEWKKLGRSVSFVYYQQTLQGDFKNRAEMIDFNIRIKNVTRSDAGKYRCEVSAPSEQGQNLEEDTVTLEVLVAPAVPSCEVPSSALSGTVVELRCQDKEGNPAPEYTWFKDGIRLLENPRLGSQSTNSSYTMNTKTGTLQFNTVSKLDTGEYSCEARNSVGYRRCPGKRMQVDDLNIS
notes: Bought (R&D); also called soluble JAM-B Fc; soluble human JAM-B Fc; not shown: Fc tag (detected with anti-human IgG1 Fc)
binding result [1]: binds | binding result [2]: binds

B2: human JAM-B FLAG (ligand)
chain: FSAPKDQQVVTAVEYQEAILACKTPKKTVSSRLEWKKLGRSVSFVYYQQTLQGDFKNRAEMIDFNIRIKNVTRSDAGKYRCEVSAPSEQGQNLEEDTVTLEVLVAPAVPSCEVPSSALSGTVVELRCQDKEGNPAPEYTWFKDGIRLLENPRLGSQSTNSSYTMNTKTGTLQFNTVSKLDTGEYSCEARNSVGYRRCPGKRMQVDDLNIS
notes: also called human JAM-B FLAG protein; not shown: FLAG tag
binding result [2]: binds

B3: murine JAM-B FLAG (ligand, UniProt Q9JI59 29-236, looked up)
chain: FSASKDHRQEVTVIEFQEAILACKTPKKTTSSRLEWKKVGQGVSLVYYQQALQGDFKDRAEMIDFNIRIKNVTRSDAGEYRCEVSAPTEQGQNLQEDKVMLEVLVAPAVPACEVPTSVMTGSVVELRCQDKEGNPAPEYIWFKDGTSLLGNPKGGTHNNSSYTMNTKSGILQFNMISKMDSGEYYCEARNSVGHRRCPGKRMQVDVLN
notes: also called murine JAM-B FLAG protein; not shown: FLAG tag
binding result [3]: binds

B4: recombinant murine JAM-B Fc (Fc fusion, UniProt Q9JI59 29-236, looked up)
chain: FSASKDHRQEVTVIEFQEAILACKTPKKTTSSRLEWKKVGQGVSLVYYQQALQGDFKDRAEMIDFNIRIKNVTRSDAGEYRCEVSAPTEQGQNLQEDKVMLEVLVAPAVPACEVPTSVMTGSVVELRCQDKEGNPAPEYIWFKDGTSLLGNPKGGTHNNSSYTMNTKSGILQFNMISKMDSGEYYCEARNSVGHRRCPGKRMQVDVLN
notes: Coated on adhesion plates; also called mouse JAM-B; not shown: Fc tag (captured by anti-huFc antibody)
binding result [4]: binds
